Reference: patent US11401512

Assays:
Test in all cases: cell_activity
[1] = test system: 71557 ZFN (left, albumin) F1 m5Q, F3 m5Q; FokI N542D (synthetic)
[2] = test system: SBS47171-FLAG ZFN (left, albumin) (synthetic)
[3] = test system: 47898-FLAG ZFN (right, albumin) (synthetic)
[4] = test system: 71728 ZFN (right, albumin) F3 m5Q; FokI P478S (synthetic)
[5] = off-target, pair 47171/47898, AAV 600K MOI
[6] = off-target, pair 71557/71728, AAV 600K MOI

Work on “TTTGGGATAGTTATGAATTCAATCTTCA (double strand) [albumin left ZFN half-site (A/T allele)]” yielded an activity ([1]; with 71728, primary human hepatocytes, AAV 600K MOI, day 10) of 44.2 % indels and an activity ([2]; with 47898, primary human hepatocytes, AAV 600K MOI, day 10) of 25.4 % indels.

For SMCHD1 off-target site, the activity [3, 5] was 0.36 % indels, the activity [1, 6] was 0.34 % indels and the activity [4, 6] was 0.34 % indels. For the same substance, the activity [2, 5] was 0.36 % indels.

Substance “CCTATCCATTGCACTATGCTTTATTTAA (double strand) [albumin right ZFN half-site]” has an activity ([3]; with 47171, primary human hepatocytes, AAV 600K MOI, day 10) of 25.4 % indels and an activity ([4]; with 71557, primary human hepatocytes, AAV 600K MOI, day 10) of 44.2 % indels.
